According to paper PMC10759339, “Expression of NELL2/NICOL-ROS1 lumicrine signaling-related molecules in the human male reproductive tract” (Reproductive Biology and Endocrinology : RB&E, 2024):

T1: C-terminally 6×His-tagged recombinant human NELL2 protein (human, UniProt Q99435 22-816)
T1 construct: Neural EGF-like like 2 (NELL2), human; also called Neural EGF-like like 2
T1 sequence (looked up): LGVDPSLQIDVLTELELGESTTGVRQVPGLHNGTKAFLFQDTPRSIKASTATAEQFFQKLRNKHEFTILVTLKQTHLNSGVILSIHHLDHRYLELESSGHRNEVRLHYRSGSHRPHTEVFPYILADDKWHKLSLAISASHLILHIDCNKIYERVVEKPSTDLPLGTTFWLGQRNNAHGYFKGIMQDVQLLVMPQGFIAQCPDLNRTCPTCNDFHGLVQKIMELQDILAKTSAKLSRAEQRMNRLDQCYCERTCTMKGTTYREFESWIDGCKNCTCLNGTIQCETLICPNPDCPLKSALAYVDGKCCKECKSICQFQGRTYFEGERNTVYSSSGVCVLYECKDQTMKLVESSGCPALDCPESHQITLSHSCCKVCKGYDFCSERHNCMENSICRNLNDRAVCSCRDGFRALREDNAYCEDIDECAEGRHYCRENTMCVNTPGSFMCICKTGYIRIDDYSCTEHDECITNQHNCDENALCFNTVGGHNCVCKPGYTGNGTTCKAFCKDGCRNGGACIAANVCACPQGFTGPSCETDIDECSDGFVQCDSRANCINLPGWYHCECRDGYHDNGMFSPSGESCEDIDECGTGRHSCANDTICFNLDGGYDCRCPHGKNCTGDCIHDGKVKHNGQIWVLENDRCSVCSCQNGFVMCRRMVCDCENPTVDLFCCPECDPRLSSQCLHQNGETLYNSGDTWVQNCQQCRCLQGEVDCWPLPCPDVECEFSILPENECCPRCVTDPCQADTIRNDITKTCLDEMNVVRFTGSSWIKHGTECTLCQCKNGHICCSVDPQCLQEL


Columns and labels:
NICOL (Mus musculus) = NICOL (Mus musculus) (UniProt Q3UR78); details: cited from earlier work
[1] = target: T1, C-terminally 6×His-tagged recombinant …; assay: SPR; purified human NELL2 immobilised on a series S sensor chip CM5 as ligand; purified human NICOL in PBS as analyte at increasing concentration; Biacore T200; details: both partners purified

NELL2, sequence (Q61220 25-819): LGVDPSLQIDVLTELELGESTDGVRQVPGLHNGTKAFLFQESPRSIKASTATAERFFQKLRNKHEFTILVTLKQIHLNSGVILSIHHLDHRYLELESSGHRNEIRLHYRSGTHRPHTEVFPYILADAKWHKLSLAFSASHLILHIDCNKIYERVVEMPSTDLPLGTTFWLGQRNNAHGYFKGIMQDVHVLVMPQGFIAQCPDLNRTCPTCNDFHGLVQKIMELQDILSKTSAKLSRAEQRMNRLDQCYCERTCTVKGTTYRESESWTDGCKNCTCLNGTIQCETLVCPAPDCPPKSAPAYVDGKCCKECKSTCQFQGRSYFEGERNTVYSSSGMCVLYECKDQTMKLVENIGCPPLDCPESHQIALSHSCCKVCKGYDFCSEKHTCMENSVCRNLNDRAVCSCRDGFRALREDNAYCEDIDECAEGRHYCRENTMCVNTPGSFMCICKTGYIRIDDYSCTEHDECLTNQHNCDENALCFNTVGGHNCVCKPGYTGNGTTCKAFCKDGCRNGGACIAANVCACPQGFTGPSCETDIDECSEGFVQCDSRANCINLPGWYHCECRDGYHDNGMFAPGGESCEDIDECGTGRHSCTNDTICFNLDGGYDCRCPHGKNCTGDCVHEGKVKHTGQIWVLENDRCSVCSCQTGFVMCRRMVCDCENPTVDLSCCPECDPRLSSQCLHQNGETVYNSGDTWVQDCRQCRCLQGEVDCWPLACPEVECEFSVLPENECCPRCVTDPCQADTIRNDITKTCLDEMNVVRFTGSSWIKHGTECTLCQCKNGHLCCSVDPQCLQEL
NICOL (Mus musculus), sequence (Q3UR78 29-90): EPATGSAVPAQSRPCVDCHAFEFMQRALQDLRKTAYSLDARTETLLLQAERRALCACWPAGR

Kd [1] [nM]	koff [1] [s⁻¹]	kon [1] [M⁻¹ s⁻¹]	Molecule	Kd (NICOL (Mus musculus)) [nM]
–	–	–	NELL2 (from UniProt Q61220)	87
110	0.00098	9100	C-terminally 6×His-tagged human NICOL protein (ligand, UniProt Q5BLP8 35-95, looked up, also called C4orf48) EPAGSAVPAQSRPCVDCHAFEFMQRALQDLRKTACSLDARTETLLLQAERRALCACWPAGH	–
